# Source: US20190241668A1 (ARGENX, published 2019)
# Changes are numbered by the printed parent chain.
# T1: TIM-3 (T cell immunoglobulin and mucin-domain containing-3) (human, UniProt Q8TDQ0 22-200, limits assumed)
# T1 construct: also called TIMD-3; HAVCR2
# T1 sequence (looked up): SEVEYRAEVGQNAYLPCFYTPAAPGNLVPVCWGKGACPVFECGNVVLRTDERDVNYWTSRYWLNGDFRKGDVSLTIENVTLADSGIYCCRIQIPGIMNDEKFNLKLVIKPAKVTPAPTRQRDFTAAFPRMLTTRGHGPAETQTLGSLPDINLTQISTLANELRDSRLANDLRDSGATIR
# B1: Fab clone 2G6 (Fab, V domains shown)
# VH: EVQLVESGGGLVQPGGSLRLSCAASGFTFSSYSMSWVRQAPGKGPEWVSGINTSGGTTSYAASVKGRFTVSRDNAKNTLSLQMNSLEPEDTAVYYCVKHIRWSGSNYYYYGMDYWGKGTLVTVSS
# VL: QAVLTQPPSVSGSPGQRFTISCTGSNRNIGNNYVNWYQQLPGTAPKLLIYSDNLRTSGVPARFSASKSGTTSSLTISGLQAEDEAVYYCSSWDDSLSGAVFGGGTHLTVL
# notes: Llama-derived Fab from an immune library; the constant domains of the Fab are not
# B2: Fab clone 2C6 (Fab, V domains shown)
# VH: QVQLVESGGGLVQPGGSLRLSCAASGFAFSSYDMSWVRQAPGKGPEWVSTINSGGGSTSYADSVKGRFTISRDNAKNTVYLQMNSLKPEDTAVYYCAARSLYYTRVPMYDYWGQGTQVTVSK
# VL: QAVVTQEPSLSVSPGGTVTLTCGLSSGSVTTNNYPGWFQQTPGQAPRTLIYSTSSRHSGVPSRFSGSISGNKAALTITGAQPEDEADYYCALDIGSYTAVFGGGTHLTVL
# notes: as for B1
# B3: Fab clone 2B6 (Fab, V domains shown)
# VH: B2 VH with P45L, S59N, V64M, L101P, M108L, K122S
# VL: QAVVTQEPSLSVSLGGTVTLTCGLRSGSVTTSNYPGWFKQTPGQAPRTLIFGASSRHSGVPSRYSGSISGNKAALTITGAEPEDEADYYCALNKGTYTDVFGGGTKLTVL
# notes: as for B1
# B4: Fab clone 2D6 (Fab, V domains shown)
# VH: QVQLQESGGGLVQPGGSLTLSCAASGFFFSSYAMSWVRQAPGKGLEWVSSISAGGGTSYYADSVKGRFTISRDSAKNTLVLQMNSLKPEDTAVYYCAKKRQNFWSEGYDSWGQGTQVTVSS
# VL: HSAVTQPPSVSGSPGKAVTISCVGSSSDVGYGDYVSWYQQLPGMAPKLLIYDVEKRASGIPDRFSGSKSGNTASLTISGLQSEDEADYYCASYRSDSNFVFGGGTHLAVL
# notes: as for B1
# B5: Fab clone 2E2 (Fab, V domains shown)
# VH: QLQLVESGGGLVQPGGSLRLSCAASGFTFGSYDMSWVRQAPGKGPEWVSRITSGGGSTYADSVKGRFTISRDNAKNTLSLQMNSLKSEDTAVYYCAAGQYSDGYYPYDYWGQGTQVTVSS
# VL: DIVMTQSPSSLSASLGDRVTITCQASQSISSYLAWYQQKPGQGPKLLIYGASRLEPGVPSRFSGSGSGTSFTLTISGVEAEDLATYYCLQDYSWPYSFGSGTRLEIK
# notes: as for B1
# B6: Fab clone 2A9 (Fab, V domains shown)
# VH: QVQLVESGPGLVKPSQTLSLTCTVSGGSITTSDDAWSWIRQPAGKGLEWMGVIAYDGSTRYSPSLQSRTSISRDTSKNQFSLQLSSVTPEDTAVYYCARTKGVGGTWALDAWGQGTLVTVSS
# VL: EIVLTQSPSSVTASVGEKVTINCKSSQSVLSSSNQKNYLSWYQQRLGQSPRLLITWASTRESGVPDRFSGSGSTTDFTLTISSFQPEDAAVYYCQQGYGAPLTFGQGTKVELKR
# notes: as for B1
# B7: Fab clone 2A2 (Fab, V domains shown)
# VH: EVQVQESGGGLVQPGGSLRLSCAASGFTFSSYAMSWVRQAPGKGLEWVSDINSGGGSTVYTDSVKGRFTISRDNAKNTLYLQMNSLKPDDTAVYYCATGGSYYSYRLFDYWGQGTQVTVSS
# VL: DIQMTQSPSSVIVSAGEKVTINCKSSQSVLDSSNQKNYLAWYQQRLGQSPRLLIYWASTRESGVPDRFSGSGSTTDFTLTISSFQPEDAAVYYCQQGYSVPVTFGQGTKVELKR
# notes: as for B1
# B8: Fab clone 2B10 (Fab, V domains shown)
# VH: QVQLQESGPGLVKPSQTLSLTCTVSGGSITTNRYLWTWIRQTPGKGLEWVGAIAYSGRTYYSPSLKSRTSISRDTSKNQFTLQLSSVTPEDTGVYYCAHFTGWGGYYWGQGTQVTVSS
# VL: QSALTQPPSVSGTLGKTVTISCAGTSSDIGGYNSVSWYQQLPGTAPKLLIYEVNKRASGIPDRFSGSKSGNTASLSISGLQSEDEADYYCASYRSANNVVFGGGTKLTVL
# notes: Llama-derived Fab from an immune library; the constant domains of the Fab are not; also called 2610; 21310
# B9: Fab clone 2E9 (Fab, V domains shown)
# VH: EVQLVESGGGLVQPGGSLRLSCAASGFTFDDYTMSWVRQVPGKGLEWISGISGNGGRTDYVEPIEGRFTISRDNAKNTLYLQMNSLKSEDTAVYYCAKTSPQSLDYWGQGTQVTVSS
# VL: DIVMTQSPSSVTASVGEKVTINCKSSQSVVSGSNQKSYLNWYQQRPGQPPRLLIYYASTQESGIPDRFSGSGSTTDFTLTISSVQPEDAAVYYCQQAYSAPYNFGSGTRLEIK
# notes: as for B1
# B10: Fab clone 2E7 (Fab, V domains shown)
# VH: ELQVVESGGGLVQPGGSLRLSCAASGFTFGSYDMSWHRQAPRKGPEWVSTISAGGGRTYYADSVKGRFTISRDNAKNTLYLQMNSLKPEDTAVYFCTKIVLDSWGQGTQVTVSS
# VL: DVVLTQTPGSLSVVPGESASISCKASQSLIHIDGKTYLYWLLQKPGRRPELLIYQVSNHESGVPDRFTGSGSGTDFTLKISGVKAEDAGVYYCAQATYYPSFGSGTRLEIK
# notes: as for B1
# B11: Fab clone 2F8 (Fab, V domains shown)
# VH: B10 VH with L2V, V4L, H37V, R42G, G66D, F95Y, T97A, I99V, L101I, S103Y
# VL: B10 VL with I30V, I32T, L38V, R47Q, E50H
# notes: as for B1
# B12: Fab clone 2A6 (Fab, V domains shown)
# VH: QVQLVESGGGLVQPGGSLRLSCAASGFTFSNYWMYWVRQAPGKGLEWVSTINTNGAITLYADNVKDRFTVSRDNAKNTLYLQMNSLKSEDTAVYYCAKVKLSGYPHPYYAMDYWGKGTLVTVSS
# VL: NFMLTQPPSLSGSLGQSARLTCTLGSGNSIGAHTISWYQQKAGSPPRYLLNYYSDSSNHQASGVPSRFSGSKDDSTNAGLLLISGLQPEDEADYYCAAGDGSGTVFGGGTKLTVL
# notes: as for B1
# B13: Fab clone 2B9 (Fab, V domains shown)
# VH: EVQLQESGPGLVKPSQTLSLTCTVSGASVTTRYNYWSWIRQPPGKGLEWMGAITYSGSTYYSPSLKSRTSISRDTSKNQFTLQLSSVTPEDTAVYYCATEGSSSTGVSRYSFGSWGQGTQVTVSS
# VL: ATMLTQSPGSLSVVPGESASISCKASQSLTHTDGTTALYWLQQKPGQRPQLLIYEVSVRASGVPDRFTGSGSGSDFTLKINGVKAEDAGVYYCAQVAYYPTFGQGTKVELK
# notes: as for B1
# B14: Fab clone 1A11 (Fab, V domains shown)
# VH: EVQLVESGGGLVQPGGSLRLSCAASGFTFSSYAMSWVRQAPGKGPEWVSHINSGGGNTKYADSVKGRFTISRDNAKNTLYLQMNTLKPEDTAVYYCAKDVSGGYYGTYALDAWGQGTQVVVSS
# VL: SYELTQSPSVSVALKQTAKITCGGDNIGSKSAQWYQQKPGQAPVLVIYADSRRPSGIPERFSGSNSGNTATLTISGAQAEDEADYYCQVWDSSAAVFGGGTHLTVL
# notes: as for B1
# Columns and labels:
# [1] = molecular target: T1, TIM-3 (T cell immunoglobulin and …); test: Biacore, Fab on TIM-3
# [2] = molecular target: T1, TIM-3 (T cell immunoglobulin and …); test: ELISA, Fab on TIM-3
Binder,koff [1],EC50 [2]
B1,3.72e-05 s⁻¹,0.0133 µg/mL
B2,1.04e-05 s⁻¹,0.00821 µg/mL
B3,3.64e-05 s⁻¹,0.00852 µg/mL
B4,0.000166 s⁻¹,0.00717 µg/mL
B5,,0.121 µg/mL
B6,,0.0114 µg/mL
B7,4.41e-05 s⁻¹,0.00805 µg/mL
B8,1.85e-05 s⁻¹,0.014 µg/mL
B9,6.64e-05 s⁻¹,0.0149 µg/mL
B10,7.62e-05 s⁻¹,0.0133 µg/mL
B11,8.53e-05 s⁻¹,0.0181 µg/mL
B12,0.000151 s⁻¹,0.0104 µg/mL
B13,4.87e-05 s⁻¹,0.00851 µg/mL
B14,2.48e-05 s⁻¹,0.01 µg/mL
